Data reported in patent publication US20170073664A1.

How the values were obtained:
Assay in all cases: cell_activity
[1] = test system: AAVS-SBI TALEN left (pZT-AAVS1 L1); conditions: pair with right TALEN, 300 ng donor; control 111
eGFP-TALEN-18-right = conditions: pair; clone 6F HEK293; control 324; 95.6% positive in flow
eGFP-TALEN-18-Left = conditions: pair; clone 6F HEK293; control 324; 95.6% positive in flow
AAVS original TALEN left = conditions: pair with right TALEN, HEK293F, 300 ng donor; control 111
[2] = test system: AAVS original TALEN right; conditions: pair with left TALEN, HEK293F, 300 ng donor; control 111
[3] = test system: AAVS-SBI TALEN right (pZT-AAVS1 R1); conditions: pair with left TALEN, 300 ng donor; control 111

## CCCCTCCACCCCACAGT (double strand) [AAVS left half-site without first T]
[1]
  activity (blasticidin-resistant colonies): 2800

## CGAGGAGCTGTTCA (double strand) [eGFP TALEN right half-site (TALEN reads complement)]
eGFP-TALEN-18-right
  activity (blasticidin colonies per 10^6 cells): 1080

## TCCACCGGTCGCCA (double strand) [eGFP TALEN left half-site]
eGFP-TALEN-18-Left
  activity (blasticidin colonies per 10^6 cells): 1080

## TCCCCTCCACCCCACAGT (double strand) [AAVS left TALEN half-site]
AAVS original TALEN left
  activity (blasticidin-resistant colonies): 1420

## TTTTCTGTCACCAATCCT (double strand) [AAVS right TALEN half-site]
[2]
  activity (blasticidin-resistant colonies): 1420
[3]
  activity (blasticidin-resistant colonies): 2800
